The experiment has as its target CD3ε on Jurkat-NFAT responder cells (UniProt P07766 23-207). In words: cell-based or functional assay.

Sequence of CD3ε on Jurkat-NFAT responder cells (P07766 23-207): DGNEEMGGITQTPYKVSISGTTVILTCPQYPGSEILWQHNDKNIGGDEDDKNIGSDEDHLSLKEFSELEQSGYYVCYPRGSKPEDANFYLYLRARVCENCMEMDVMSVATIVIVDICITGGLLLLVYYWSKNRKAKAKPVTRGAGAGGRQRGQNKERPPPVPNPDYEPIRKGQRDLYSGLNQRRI

B1: BEAT®3 (bispecific antibody, human IgG1, kappa, L234A L235A)
chain 1: EVQLVESGGGLVQPGGSLRLSCAASGFTFNTYAMNWVRQAPGKGLEWVARIRSKYNNYATYYADSVKSRFTISRDDSKNTLYLQMNSLRAEDTAVYYCVRHGNFGNSYVSYFAYWGQGTTVTVSSGGGGSGGGGSGGGGSEIVVTQSPATLSVSPGERATLSCRSSTGAVTESNYANWVQEKPGQAFRGLIGGANKRAPGVPARFSGSLSGDEATLTISSLQSEDFAVYYCALFYSNTWVFGQGTKLEIKGGGGTQVQLQESGPGLVKPSETLSLTCTVSGGSVSSGDYYWTWIRQSPGKGLEWIGHIYYSGNTNYNPSLKSRLTISIDTSKTQFSLKLSSVTAADTAIYYCVRDRVTGAFDIWGQGTMVTVSSASTKGPSVFPLAPSSKSTSGGTAALGCLVKDYFPEPVTVSWNSGALTSGVHTFPAVLQSSGLYSLSSVVTVPSSSLGTQTYICNVNHKPSNTKVDKKVEPKSCDKTHTCPPCPAPEAAGGPSVFLFPPKPKDTLMISRTPEVTCVVVDVSHEDPEVQFKWYVDGVEVHNAKTKPREEQYNSTFRVVSVLTVLHQDWLNGKEYKCKVSNKALPAPIEKTISKTKGQPREPAVYTLPPSREEMTKNQVKLVCLVTGFYPSDIAVEWESSGQPENNYYTTPPMLDSDGSFSLVSWLNVDKSRWQQGNIFSCSVMHEALHNRFTQKSLSLSPG
chain 2: not shown
chain 3: DKTHTCPPCPAPEAAGGPSVFLFPPKPKDTLMISRTPEVTCVVVDVSHEDPEVKFNWYVDGVEVHNAKTKPREEQYNSTYRVVSVLTVLHQDWLNGKEYKCKVSNKALPAPIEKTISKAKGQPREPEVATFPPSRDELTKNQVTLVCLVTGFYPSDIAVEWESNGQPENNYKTDPPLLESDGSFALSSRLRVDKSRWQQGNVFSCSVMHEALHNHYTQKSLSLSPG
Regarding B1, the “EC50 of NFAT-luciferase luminescence (Jurkat-NFAT responder cells co-incubated with SK-BR-3 target cells); sample: BEAT®3 High pH T2h” value came out at 0.0065 µg/ml and the “EC50 of NFAT-luciferase luminescence (Jurkat-NFAT responder cells co-incubated with SK-BR-3 target cells); sample: BEAT®3 High pH T4h” value was 0.0074 µg/ml.

Source of the values: patent US20200369747A1 (ICHNOS SCIENCES, published 2020).
